Here are results for 37 sequences from the supplement of paper PMC7877785.

± gives the uncertainty stated by the source.

A short description of the data set: self-splicing fitness, log relative to wild type (ln ratio); higher = more splicing; Tetrahymena group I intron in knt gene, E. coli kanamycin selection, DiMSum; sequences stand for … in CUCUCU…GGAGGGAAAAGUUAUCAGGCAUGCACCUGGUAGCUAGUCUUUAAACCAAUAGAUUGCAUCGGUUUAAAAGGCAAGACCGUCAAAUUGCGGGAAAGGGGUCAACAGCCGUUCAGUACCAAGUCUCAGGGGAAACUUUGAGAUGGCCUUGCAAAGGGUAUGGUAAUAAGCUGACGGACAUGGUCCUAACCACGCAGCCAAGUCCUAAGUCAACAGAUCUUCUGUUGAUAUGGAUGCAGUUCACAGACUAAAUGUCGGUCGGGGAAGAUGUAUUCUUCUCAUAAGAUAUAGUCGGACCUCUCCUUAAUGGGAGCUAGCGGAUGAAGUGAUGCAACACUGGAGCCGCUGGGAACUAAUUUGUAUGCGAAAGUAUAUUGAUUAGUUUUGGAGUACUCGUGGUCG
In outline: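 Six replicate transformations of E. coli BL21(DE3) with a pET-22b(+) library were grown overnight at 37°C or 30°C. The library randomised all eight P1ex-region intron nucleotides, the intron lying in the knt kanamycin-resistance gene, and plates were LB agar with or without 25 μg/mL kanamycin plus 100 μg/mL carbenicillin, 50 μM IPTG and 0.2% rhamnose. Pooled colonies were amplicon-sequenced on an Illumina HiSeq 2500, and fitness is the DiMSum error-weighted combination of wild-type-normalised replicate fold changes, kanamycin versus none.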

Turning to GCCCAGCAAUAUUACGUUCG, the “self-splicing fitness (ln)” value reads like this: (30 °C) -3.71 ± 0.18; (37 °C) -2.52 ± 0.22.

As for AGCGAGCAAUAUUACGCAGG, under “30 °C”, the “self-splicing fitness (ln)” value was -2.43 ± 0.24.

As to UUAGAGCAAUAUUACGGUAG, the “self-splicing fitness (ln)” value by setting is: (30 °C) -1.27 ± 0.12; (37 °C) -0.297 ± 0.14.

Consider GCAUAGCAAUAUUACGAUAG, for which the “self-splicing fitness (ln)” value by setting is: (30 °C) -3.12 ± 0.17; (37 °C) -2.34 ± 0.2.

Consider AGUCAGCAAUAUUACGCCAA, for which the “self-splicing fitness (ln)” value is -2.75 ± 0.34 (30 °C) and -0.963 ± 0.2 (37 °C).

On to GACGAGCAAUAUUACGGUAC, for which the “self-splicing fitness (ln)” value by setting is: (30 °C) -1.99 ± 0.39; (37 °C) -1.98 ± 0.34.

GAGAAGCAAUAUUACGCCUU: the “self-splicing fitness (ln)” value runs as follows: (30 °C) -2.46 ± 0.26; (37 °C) -0.767 ± 0.27.

Consider GUCUAGCAAUAUUACGUUAA, for which the “self-splicing fitness (ln)” value is, setting by setting: (30 °C) -0.894 ± 0.097; (37 °C) -0.331 ± 0.094.

As for GCUGAGCAAUAUUACGUGCA, the “self-splicing fitness (ln)” value is, setting by setting: (30 °C) -1.81 ± 0.19; (37 °C) -0.958 ± 0.19.

In the case of GGGCAGCAAUAUUACGGUUU, the “self-splicing fitness (ln)” value runs as follows: (30 °C) -0.465 ± 0.065; (37 °C) -0.681 ± 0.071.

As to GAGAAGCAAUAUUACGUUGA, the “self-splicing fitness (ln)” value reads like this: (30 °C) -3.28 ± 0.21; (37 °C) -1.19 ± 0.17.

On to CACCAGCAAUAUUACGGCGA, for which the “self-splicing fitness (ln)” value by setting is: (30 °C) -1.62 ± 0.061; (37 °C) -1.23 ± 0.063.

With UCCCAGCAAUAUUACGUUGA, the “self-splicing fitness (ln)” value is, setting by setting: (30 °C) -1.26 ± 0.066; (37 °C) 0.408 ± 0.075.

In the case of AAGAAGCAAUAUUACGGAUU, the “self-splicing fitness (ln)” value runs as follows: (30 °C) -1.37 ± 0.097; (37 °C) -0.421 ± 0.12.

In the case of GAGAAGCAAUAUUACGCUGU, the “self-splicing fitness (ln)” value was -3.35 ± 0.3 (30 °C) and -1.45 ± 0.29 (37 °C).

With CUCCAGCAAUAUUACGGGCG, the “self-splicing fitness (ln)” value is -1.74 ± 0.092 (30 °C) and -1.2 ± 0.13 (37 °C).

For the sequence GAAGAGCAAUAUUACGGCUA, the “self-splicing fitness (ln)” value runs as follows: (30 °C) -1.5 ± 0.15; (37 °C) -0.512 ± 0.15.

Take AUGUAGCAAUAUUACGAGGG: the “self-splicing fitness (ln)” value is -3.49 ± 0.23 (30 °C) and -1.18 ± 0.22 (37 °C).

Turning to CGUGAGCAAUAUUACGUGCG, the “self-splicing fitness (ln)” value (30 °C) was -3.21 ± 0.24 and the “self-splicing fitness (ln)” value (37 °C) is -2.6 ± 0.32.

GAUAAGCAAUAUUACGAACC: the “self-splicing fitness (ln)” value (30 °C) is -0.954 ± 0.1 and the “self-splicing fitness (ln)” value (37 °C) was -0.647 ± 0.13.

Turning to UCUCAGCAAUAUUACGCUGU, the “self-splicing fitness (ln)” value was -2.3 ± 0.21 (30 °C) and -1.17 ± 0.31 (37 °C).

For CCACAGCAAUAUUACGCGAC, the “self-splicing fitness (ln)” value was -2.75 ± 0.17 (30 °C) and -2.76 ± 0.26 (37 °C).

As to AACAAGCAAUAUUACGAGAG, the “self-splicing fitness (ln)” value is, setting by setting: (30 °C) -3.79 ± 0.22; (37 °C) -2.24 ± 0.14.

For the sequence CACUAGCAAUAUUACGUGCC, the “self-splicing fitness (ln)” value is -4.04 ± 0.46 (30 °C) and -2.17 ± 0.29 (37 °C).

Consider AUAAAGCAAUAUUACGUCAG, for which the “self-splicing fitness (ln)” value runs as follows: (30 °C) -1.6 ± 0.12; (37 °C) -0.647 ± 0.12.

For the sequence GGACAGCAAUAUUACGUCAU, the “self-splicing fitness (ln)” value (30 °C) is -1.17 ± 0.095 and the “self-splicing fitness (ln)” value (37 °C) is -0.489 ± 0.1.

As for UGAAAGCAAUAUUACGAAUG, the “self-splicing fitness (ln)” value (30 °C) was -0.602 ± 0.066 and the “self-splicing fitness (ln)” value (37 °C) is -0.0842 ± 0.078.

Consider CAGAAGCAAUAUUACGAGCU, for which the “self-splicing fitness (ln)” value was -2.12 ± 0.18 (30 °C) and -1.77 ± 0.2 (37 °C).

With GUAUAGCAAUAUUACGGAUC, the “self-splicing fitness (ln)” value runs as follows: (30 °C) -0.654 ± 0.14; (37 °C) -0.016 ± 0.17.

For the sequence CCGUAGCAAUAUUACGCCAU, the “self-splicing fitness (ln)” value (30 °C) is -3.26 ± 0.25 and the “self-splicing fitness (ln)” value (37 °C) is -2.77 ± 0.36.

Take AUCCAGCAAUAUUACGCUCC: the “self-splicing fitness (ln)” value is, setting by setting: (30 °C) -0.802 ± 0.12; (37 °C) 0.304 ± 0.2.

For CUCGAGCAAUAUUACGGGAC, the “self-splicing fitness (ln)” value was -3.8 ± 0.24 (30 °C) and -2.41 ± 0.27 (37 °C).

For the sequence UCUGAGCAAUAUUACGCCUU, the “self-splicing fitness (ln)” value runs as follows: (30 °C) -3.06 ± 0.12; (37 °C) -1.54 ± 0.14.

For AUAUAGCAAUAUUACGCGAU, the “self-splicing fitness (ln)” value is -2.69 ± 0.33 (30 °C) and -1.57 ± 0.49 (37 °C).

Take GAAAAGCAAUAUUACGAAAA: the “self-splicing fitness (ln)” value runs as follows: (30 °C) -2.25 ± 0.22; (37 °C) -2.42 ± 0.17.

Consider UACUAGCAAUAUUACGGUGU, for which the “self-splicing fitness (ln)” value is -3.74 ± 0.23 (30 °C) and -2.65 ± 0.29 (37 °C).

Turning to UGUUAGCAAUAUUACGAUGG, the “self-splicing fitness (ln)” value is, setting by setting: (30 °C) -1.71 ± 0.11; (37 °C) -0.474 ± 0.1.
